Test results reported in US20200057047.

Test system: HA-tagged AhR

Chain of Myc-tagged PKCθ (Q04759 whole entry): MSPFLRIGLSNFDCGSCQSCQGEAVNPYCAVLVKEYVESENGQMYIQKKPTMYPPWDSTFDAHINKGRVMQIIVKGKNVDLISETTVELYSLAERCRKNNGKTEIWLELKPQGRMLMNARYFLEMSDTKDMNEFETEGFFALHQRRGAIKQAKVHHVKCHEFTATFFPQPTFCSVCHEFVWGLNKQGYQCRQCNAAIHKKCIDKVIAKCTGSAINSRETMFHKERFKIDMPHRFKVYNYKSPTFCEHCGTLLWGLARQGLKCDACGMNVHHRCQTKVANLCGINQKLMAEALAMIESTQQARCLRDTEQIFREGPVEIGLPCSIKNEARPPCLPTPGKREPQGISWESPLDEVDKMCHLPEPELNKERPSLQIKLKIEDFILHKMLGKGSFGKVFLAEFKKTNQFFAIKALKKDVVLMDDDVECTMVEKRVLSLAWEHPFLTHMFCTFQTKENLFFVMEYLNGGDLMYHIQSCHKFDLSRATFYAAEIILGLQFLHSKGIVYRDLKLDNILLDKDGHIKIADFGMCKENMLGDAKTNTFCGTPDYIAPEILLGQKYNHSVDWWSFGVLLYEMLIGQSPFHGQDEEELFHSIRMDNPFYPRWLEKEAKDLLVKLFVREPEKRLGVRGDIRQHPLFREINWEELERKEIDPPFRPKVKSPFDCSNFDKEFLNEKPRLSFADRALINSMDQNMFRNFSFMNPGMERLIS

Substance	in vitro kinase assay: AhR Ser-36 phosphorylation
Myc-tagged PKCθ	purified PKCθ indeed phosphorylated AhR at Ser-36
Myc-tagged PKCθ kinase-dead (K409W) mutant	purified kinase-dead (K409W) mutant of PKCθ did not
